Experiment [1] deals with MBP-BirA fusion (E. coli biotin ligase / biotin holoenzyme synthetase with N-terminal maltose binding protein) (E. coli) [MBP: P0AEX9]. In words: phage ELISA on plate-coated MBP-BirA, anti-M13-HRP detection; reference: same phage unmodified. In general terms: ELISA stands for enzyme-linked immunosorbent assay.
Experiment [2] deals with streptavidin (Prozyme) (UniProt P22629). Briefly: phage ELISA on plate-coated streptavidin, anti-M13-HRP detection.
The target is the same in experiment [3]. Briefly: phage ELISA on plate-coated streptavidin, both with and without 10 mM DTT; reference: Ser-Ser phage.

Chain of streptavidin (Prozyme) (P22629 37-163 limits assumed): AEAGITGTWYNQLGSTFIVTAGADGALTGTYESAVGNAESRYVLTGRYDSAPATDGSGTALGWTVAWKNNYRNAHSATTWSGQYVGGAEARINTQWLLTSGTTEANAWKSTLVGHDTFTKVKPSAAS

As to “biotin-modified M13 phage clone displaying CLQPSecYGS (peptide)”, the fold increase of affinity, biotin-modified against unmodified phage in experiment [1] was 5 fold. As for “biotin-modified M13 phage clone displaying VTAKSecCYP (peptide)”, in experiment [1], the fold increase of affinity, biotin-modified against unmodified phage is 5 fold. In turn, “M13 phage displaying the disulfide constrained sequence Cys-HPQGPP-Cys (peptide)” returned a reduction of binding in 10 mM DTT against no DTT (orders of magnitude) with streptavidin (Prozyme) [2] of more than 2.

As for “M13 phage displaying the selenosulfide constrained sequence Cys-HPQGPT-Sec (peptide)”, in the experiment with streptavidin (Prozyme) [3], the tighter binding against the linear Ser-Ser sequence (orders of magnitude) stood at 2. The substance “biotin-modified M13 phage clone displaying VPKQSecCQN (peptide)” returned a fold increase of affinity, biotin-modified against unmodified phage in experiment [1] of 5 fold.

The values above are taken from patent publication US20050048548A1.
